Measurements taken from patent US20150307599A1 (GARVAN INSTITUTE OF MEDICAL RESEARCH, published 2015).
The star is where a group is joined. Biotin = O=C1N[C@H]2[C@H](CS[C@H]2CCCCC(=O)*)N1; Ahx = NCCCCCC(=O)O

T1: biotin-hPP (human, N-terminal Biotin-Ahx-; C-terminal amide (-NH2))
T1 peptide: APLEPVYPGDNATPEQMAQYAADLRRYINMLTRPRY

T2: biotin-NPY20-36 (SMILES …)
T2 construct: Captured on neutravidin or streptavidin plates
T2 peptide: {Biotin-Ahx}-YYSALRHYINLITRQRY-NH2


Legend:
biotin-hPYY = biotin-hPYY (human, N-terminal Biotin-Ahx-; C-terminal amide (-NH2)); assay: BLI (ForteBio Blitz), biotinylated peptide on streptavidin sensor, scFv in solution
biotin-hPYY (human, N-terminal Biotin-Ahx-; C-terminal amide (-NH2)), sequence (peptide, as listed by the source): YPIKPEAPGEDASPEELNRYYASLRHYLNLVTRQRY
Description: (§1) Affinity of the purified scFv for biotin-NPY, biotin-hPYY and biotin-hPP was determined using a Blitz system (ForteBio). Streptavidin Biosensors were blocked for 1 hr with 1% BSA in PBS. Biosensors were then coupled for 120 seconds with 1 μM solutions of biotinylated peptide followed by a 30 second baseline measurement. The sensors were then transferred to varying dilutions of purified scFv and association was measured for 300 seconds. The sensors were then transferred to PBS and dissociation was measured for 900 seconds. Global fits were determined for association and dissociation curves at two concentrations of each scFv against each of the peptides. All curves were referenced with peptide-only and scFv-only runs.

biotin-NPY = biotin-NPY (N-terminal Biotin-Ahx-; C-terminal amide (-NH2)); assay: as above
Description: as §1

biotin-hPP = biological target: T1, biotin-hPP; assay: as above
Description: as §1

biotin-NPY20-36 [1] = biological target: T2, biotin-NPY20-36; assay: soluble scFv ELISA, biotin-NPY20-36 on streptavidin
Description: (§2) In order to analyze antigen binding, ELISA plates were coated with 1 ug/mL biotin-NPY₂₀₋₃₆ on 10 ug/mL streptavidin […] streptavidin only.
(§3) Plates were then blocked with 5% skim milk/PB ST and incubated with supernatant from the IPTG-induced cultures. Binding of soluble scFv to wells was detected with peroxidase conjugated anti-cMyc.

biotin-NPY20-36 [2] = biological target: T2, biotin-NPY20-36; assay: phage ELISA, scFv on phage, anti-M13 detection
Description: Overnight cultures were grown from clones transformed with the humanized 5E12-B7 scFv genes pHEN1 vector. Phages were then produced through overnight incubation after rescue with KM13 helper phage. In order to analyze antigen binding, ELISA plates were coated with 500 ng/mL biotin-NPY₂₀₋₃₆ on 10 ug/mL neutravidin; 10 ug/mL neutravidin only; 10 ug/mL Protein A or 10 ug/mL Protein L
ELISA plates were blocked with 5% skim milk/PB ST then incubated with phage culture supernatant which had also been blocked with 5% skim milk/1% Tween (final concentration). Binding of scFv-phage to wells was detected with Peroxidase conjugated anti-M13 secondary antibody.

biotin-NPY20-36 [3] = biological target: T2, biotin-NPY20-36; assay: soluble scFv ELISA, biotin-NPY20-36 on streptavidin, anti-cMyc detection
Description: as §2, §3

| Binder | Kd (biotin-hPYY) [nM] | Kd (biotin-NPY) [nM] | max signal (nm) (biotin-hPP) | binding result (biotin-NPY20-36 [1]) | binding result (biotin-NPY20-36 [2]) | binding result (biotin-NPY20-36 [3]) |
| --- | --- | --- | --- | --- | --- | --- |
| scFv-6 (human) (scFv, Human scFv from the Garvan-2 phage library; Whole entry used as named) scFv: EVQLLESGGGLVQPGGSLRLSCAASGFRFSAEDMGWVRQAPGKGLEWVSSIASAGASTYYADSVKGRFTISRDNSKNTLYLQMNSLRAEDTAVYYCAKHMYSYAIFDYWGQGTLVTVSSGGGGSGGGGSGGGGSTDIQMTQSPSSLSASVGDRVTITCRASQDIADALNWYQQKPGKAPKLLIYAASSLQSGVPSKFSGSGSGTDFTLTISSLQPEDFATYYCQQGYVHPPTFGQGTKVEIKR | 3240 | 177 | < 0.2 | binds | – | – |
| scFv-3 (human) (scFv, Human scFv from the Garvan-2 phage library; Whole entry used as named) scFv: EVQLLESGGGLVQPGGSLRLSCAASGFRFSDEDMGWVRQAPGKGLEWVSSIYGPSGSTYYADSVKGRFTISRDNSKNTLYLQMNSLRAEDTAVYYCAKDDVGTGTFDYWGQGTLVTVSSGGGGSGGGGSGGGGSTDIQMTQSPSSLSASVGDRVTITCRASQYIYYALNWYQQKPGKAPKLLIYDYSALQSGVPSRFSGSGSGTDFTLTISSLQPEDFATYYCQQSYYHPATFGQGTKVEIKR | 1910 | – | < 0.2 | binds | – | – |
| h5E12 IGHV1-46/DPK9 scFv (humanized) (scFv, Humanized 5E12 scFv) scFv: QVQLVQSGAEVKKPGASVKVSCKASGYTFTNYWMHWVRQAPGQGLEWMGNIDPSNGGTNYNEKFKSRVTMTRDTSTSTVYMELSSLRSEDTAVYYCASFAYWGQGTLVTVSSGGGGSGGGGSGGGGSTDIQMTQSPSSLSASVGDRVTITCRASGNIHNYLAWYQQKPGKAPKLLIYNAKTLADGVPSRFSGSGSGTDFTLTISSLQPEDFATYYCQHFWSPPFTFGQGTKVEIKR | 1040 | 905 | < 0.2 | – | binds | – |
| h5E12 IGHV1-69/DPK9 scFv (humanized) (scFv, Humanized 5E12 scFv) scFv: QVQLVQSGAEVKKPGSSVKVSCKASGYTFTNYWMHWVRQAPGQGLEWMGNIDPSNGGTNYNEKFKSRVTITADESTSTAYMELSSLRSEDTAVYYCASFAYWGQGTLVTVSSGGGGSGGGGSGGGGSTDIQMTQSPSSLSASVGDRVTITCRASGNIHNYLAWYQQKPGKAPKLLIYNAKTLADGVPSRFSGSGSGTDFTLTISSLQPEDFATYYCQHFWSPPFTFGQGTKVEIKR | 140 | 142 | < 0.2 | – | binds | – |
| scFv-7 (human) (scFv, Human scFv from the Garvan-2 phage library; Whole entry used as named) scFv: EVQLLESGGGLVQPGGSLRLSCAASGFRFDYEDMGWVRQAPGKGLEWVSAIASDGDSTYYADSVKGRFTISRDNSKNTLYLQMNSLRAEDTAVYYCAKIYYDGAYRVFDYWGQGTLVTVSSGGGGSGGGGSGGGGSTDIQMTQSPSSLSASVGDRVTITCRASQSISSYLNWYQQKPGKAPKLLIYSASYLQSGVPSRFSGSGSGTDFTLTISSLQPEDFATYYCQQYSMLPTTFGQGTKVEIKR | – | 9250 | < 0.2 | binds | – | – |
| mouse 5E12-B7 scFv PSE2 (scFv, V domains shown, not shown: small tags and cut ends, also called 5E12 (mouse); mouse 5E12 PSE2) VH: QVQLQHPGTEVVKPGASVKLSCKASGYTFTNYWMHWVKQRPGQGLEWIGNIDPSNGGTNYNEKFKSKATLTVDKSSSTAYMQLSSLTSEDSAVYYCASFAYWGQGTLVTVSS VL: DIQMTQSPASLSASVGETVTITCRASGNIHNYLAWYQQKQGKSPQLLVYNAKTLADGVPSRFSGSGSGTQYSLKISSLRPEDFGSYYCQHFWSPPFTFGSGTKLEIK | 32.9 | 22.1 | – | – | – | binds |
